# Test results: US9127040B2, “Regulation of sodium channels by PLUNC proteins” (The University of North Carolina at Chapel Hill, priority 2011, dated 2015)
# T1: ENaC (Homo sapiens, UniProt P37088+P51168+P51170)
# T1 construct: measured the transepithelial voltage under thin film conditions in human bronchial epithelial cultures; endogenous in cells; host or cells: primary human bronchial epithelial cultures (normal or CF donors)
# T1 sequence (P37088 1-669): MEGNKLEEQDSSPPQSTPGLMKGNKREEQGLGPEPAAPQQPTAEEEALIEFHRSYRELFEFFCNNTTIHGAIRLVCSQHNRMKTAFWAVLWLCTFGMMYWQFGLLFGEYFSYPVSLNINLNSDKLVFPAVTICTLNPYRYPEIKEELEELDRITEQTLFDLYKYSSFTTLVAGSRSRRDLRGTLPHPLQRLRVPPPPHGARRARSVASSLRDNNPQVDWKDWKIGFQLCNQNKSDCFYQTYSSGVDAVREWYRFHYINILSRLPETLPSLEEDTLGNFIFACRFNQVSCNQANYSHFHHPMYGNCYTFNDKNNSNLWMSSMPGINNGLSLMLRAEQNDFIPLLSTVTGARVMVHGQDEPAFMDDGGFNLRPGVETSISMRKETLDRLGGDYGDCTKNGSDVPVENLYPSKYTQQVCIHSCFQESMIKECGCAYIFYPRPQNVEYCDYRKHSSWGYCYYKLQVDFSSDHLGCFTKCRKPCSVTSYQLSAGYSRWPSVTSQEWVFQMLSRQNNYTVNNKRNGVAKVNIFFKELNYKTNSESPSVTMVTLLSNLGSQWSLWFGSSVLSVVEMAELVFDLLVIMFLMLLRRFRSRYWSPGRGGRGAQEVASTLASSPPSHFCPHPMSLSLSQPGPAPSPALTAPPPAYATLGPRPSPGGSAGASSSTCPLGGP
# T1 sequence (P51168 1-640): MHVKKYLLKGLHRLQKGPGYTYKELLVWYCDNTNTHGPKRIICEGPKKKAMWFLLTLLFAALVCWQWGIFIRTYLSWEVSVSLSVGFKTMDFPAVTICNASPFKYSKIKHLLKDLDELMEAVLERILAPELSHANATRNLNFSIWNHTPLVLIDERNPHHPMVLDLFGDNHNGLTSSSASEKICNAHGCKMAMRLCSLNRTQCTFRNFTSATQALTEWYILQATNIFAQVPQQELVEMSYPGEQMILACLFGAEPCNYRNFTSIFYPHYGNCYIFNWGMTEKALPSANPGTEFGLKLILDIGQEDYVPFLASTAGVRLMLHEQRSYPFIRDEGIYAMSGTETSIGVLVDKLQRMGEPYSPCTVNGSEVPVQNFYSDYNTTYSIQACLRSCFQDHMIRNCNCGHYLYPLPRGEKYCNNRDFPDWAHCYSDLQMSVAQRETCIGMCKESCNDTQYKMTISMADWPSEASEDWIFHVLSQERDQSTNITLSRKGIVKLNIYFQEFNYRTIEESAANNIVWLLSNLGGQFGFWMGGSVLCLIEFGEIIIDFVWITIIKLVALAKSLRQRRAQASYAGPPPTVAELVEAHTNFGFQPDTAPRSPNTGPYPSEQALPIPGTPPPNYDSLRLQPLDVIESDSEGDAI
# T1 sequence (P51170 1-649): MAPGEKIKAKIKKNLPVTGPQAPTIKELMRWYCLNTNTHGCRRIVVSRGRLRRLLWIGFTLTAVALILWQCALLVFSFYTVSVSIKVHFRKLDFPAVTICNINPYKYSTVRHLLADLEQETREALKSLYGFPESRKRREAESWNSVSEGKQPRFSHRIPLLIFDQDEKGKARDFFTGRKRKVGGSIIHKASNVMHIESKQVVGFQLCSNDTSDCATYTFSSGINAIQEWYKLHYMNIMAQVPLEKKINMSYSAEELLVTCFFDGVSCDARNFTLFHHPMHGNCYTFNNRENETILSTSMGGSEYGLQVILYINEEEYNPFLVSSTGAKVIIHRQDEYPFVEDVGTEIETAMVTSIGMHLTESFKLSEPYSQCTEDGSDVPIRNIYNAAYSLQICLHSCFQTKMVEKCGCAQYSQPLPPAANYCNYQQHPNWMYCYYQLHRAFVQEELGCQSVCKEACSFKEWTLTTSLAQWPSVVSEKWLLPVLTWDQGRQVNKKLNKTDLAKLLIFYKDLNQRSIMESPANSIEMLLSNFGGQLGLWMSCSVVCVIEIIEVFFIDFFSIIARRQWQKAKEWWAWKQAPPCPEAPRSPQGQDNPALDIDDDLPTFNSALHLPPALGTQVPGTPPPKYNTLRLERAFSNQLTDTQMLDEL
# T2: αβγENaC (Rattus norvegicus, UniProt P37089+P37090+P37091)
# T2 construct: expressed in transfected cells; host or cells: Xenopus laevis oocytes (cRNA injection)
# T2 sequence (P37089 1-698): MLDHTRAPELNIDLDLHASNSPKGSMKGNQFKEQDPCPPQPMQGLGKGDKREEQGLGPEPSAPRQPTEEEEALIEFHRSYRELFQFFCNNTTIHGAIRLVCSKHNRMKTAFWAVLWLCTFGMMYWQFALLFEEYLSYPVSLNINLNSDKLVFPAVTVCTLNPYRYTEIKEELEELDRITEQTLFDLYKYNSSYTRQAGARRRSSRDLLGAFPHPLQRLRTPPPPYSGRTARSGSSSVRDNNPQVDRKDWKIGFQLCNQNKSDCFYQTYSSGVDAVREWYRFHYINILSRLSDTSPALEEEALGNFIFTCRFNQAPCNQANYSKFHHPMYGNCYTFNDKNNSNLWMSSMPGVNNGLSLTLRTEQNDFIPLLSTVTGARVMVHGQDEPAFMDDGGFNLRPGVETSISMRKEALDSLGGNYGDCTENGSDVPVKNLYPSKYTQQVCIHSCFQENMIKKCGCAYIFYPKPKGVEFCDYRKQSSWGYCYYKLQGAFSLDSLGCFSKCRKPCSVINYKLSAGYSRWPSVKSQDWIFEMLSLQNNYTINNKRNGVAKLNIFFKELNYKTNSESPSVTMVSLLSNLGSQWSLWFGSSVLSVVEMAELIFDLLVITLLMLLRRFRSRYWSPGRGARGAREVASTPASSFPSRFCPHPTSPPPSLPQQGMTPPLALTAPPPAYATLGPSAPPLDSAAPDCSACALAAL
# T2 sequence (P37090 1-638): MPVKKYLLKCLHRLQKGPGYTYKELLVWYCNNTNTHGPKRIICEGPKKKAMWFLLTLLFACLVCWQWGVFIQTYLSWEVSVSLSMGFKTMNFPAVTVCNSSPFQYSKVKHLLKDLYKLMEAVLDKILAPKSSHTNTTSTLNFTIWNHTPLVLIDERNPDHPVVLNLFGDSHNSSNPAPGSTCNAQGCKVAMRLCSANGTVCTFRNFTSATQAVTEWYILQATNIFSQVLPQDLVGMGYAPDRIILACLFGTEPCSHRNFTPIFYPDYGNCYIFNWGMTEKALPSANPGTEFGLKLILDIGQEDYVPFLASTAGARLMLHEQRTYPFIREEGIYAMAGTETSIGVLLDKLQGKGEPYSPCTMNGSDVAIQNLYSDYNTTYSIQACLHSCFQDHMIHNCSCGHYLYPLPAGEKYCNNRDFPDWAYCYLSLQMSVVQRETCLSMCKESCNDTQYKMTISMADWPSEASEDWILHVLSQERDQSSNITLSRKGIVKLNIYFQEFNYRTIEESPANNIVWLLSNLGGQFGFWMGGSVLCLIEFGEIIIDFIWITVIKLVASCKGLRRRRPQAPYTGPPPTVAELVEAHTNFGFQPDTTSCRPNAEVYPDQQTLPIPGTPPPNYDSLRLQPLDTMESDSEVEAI
# T2 sequence (P37091 1-650): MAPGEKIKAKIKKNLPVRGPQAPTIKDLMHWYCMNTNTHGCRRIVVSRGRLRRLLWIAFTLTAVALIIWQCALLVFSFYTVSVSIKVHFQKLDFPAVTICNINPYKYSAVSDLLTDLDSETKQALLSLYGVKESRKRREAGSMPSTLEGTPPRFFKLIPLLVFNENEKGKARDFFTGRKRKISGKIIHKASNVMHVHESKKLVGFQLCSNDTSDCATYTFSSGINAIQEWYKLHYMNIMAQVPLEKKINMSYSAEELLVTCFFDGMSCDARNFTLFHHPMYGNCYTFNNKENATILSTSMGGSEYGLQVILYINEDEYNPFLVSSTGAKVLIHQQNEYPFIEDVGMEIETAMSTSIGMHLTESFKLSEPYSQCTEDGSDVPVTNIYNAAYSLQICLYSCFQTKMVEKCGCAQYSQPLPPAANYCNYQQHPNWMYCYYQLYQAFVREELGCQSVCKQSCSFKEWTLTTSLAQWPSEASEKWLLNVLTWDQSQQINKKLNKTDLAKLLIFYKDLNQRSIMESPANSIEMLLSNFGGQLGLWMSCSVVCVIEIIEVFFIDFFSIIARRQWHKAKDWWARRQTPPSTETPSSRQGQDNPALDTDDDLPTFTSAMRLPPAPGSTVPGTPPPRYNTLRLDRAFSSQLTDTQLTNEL
# Columns and labels:
# [1] = biological target: T1, ENaC; assay: Transepithelial voltage (PD), thin film conditions, human bronchial epithelial cultures; assay type: cell-based; details: 50 ng/ml, PD remeasured 45 min later, prewashed cultures
# Excerpt: Tissue procurement and cell culture: Cells were harvested by enzymatic digestion from human bronchial tissue as previously described under a protocol approved by the UNC School of Medicine IRB (Tarran et al., J. Gen. Physiol. 127:591 (2006)). Human excess donor lungs and excised recipient lungs were obtained at the time of lung transplantation from portions of main stem or […] bronchi and cells were harvested by enzymatic digestion. All preparations were maintained at an air-liquid interface in a modified bronchial epithelial medium and used 2-5 weeks after seeding on 12 mm T-Clear inserts (Corning Costar) coated with human placental type VI collagen (Sigma). Phosphate buffered saline (PBS) was used for washing human bronchial epithelial culture mucosal surfaces. HBECs were maintained at an air-liquid interface in a modified bronchial epithelial growth medium (BEGM) with 5% CO2 at 37° C. and used 2-5 weeks after seeding on 12-mm T-clear inserts (Corning-Costar, Corning, N.Y., USA) (Randell, Methods Mol. Biol. 742:285 (2011)).
# A single-barreled potential difference-sensing electrode was placed in the airway surface liquid by micromanipulator and used in conjunction with a macroelectrode in the serosal solution to measure transepithelial voltage using a voltmeter (World Precision Instruments). […] Transepithelial resistance was routinely measured using the EVOM system (WPI) as previously described (Tarran et al., J. Gen. Physiol. 127:591 (2006)).
# [2] = tested on: CF HBECs; details: 30 μM, ASL height over 24 h
# [3] = biological target: T2, αβγENaC; assay: Amiloride-sensitive whole cell current, two electrode voltage clamp, Xenopus laevis oocytes expressing αβγENaC; assay type: cell-based; details: PLUNC family member co-expressed with α,β,γ ENaC
# Procedure: Xenopus laevis oocytes were harvested and injected as described (Donaldson, et al., J. Biol. Chem. 277:8338 (2002)). Defolliculated healthy stage V-VI oocytes were injected with 0.3 ng of CRNA of each ENaC subunit. Injected oocytes were kept in modified Barth's saline (in mM: 88 NaCl, 1 KCl, 2.4 NaHCO3, 0.3 Ca(NO3)2, 0.41 CaCl2, 0.82 MgSO4, and 15 HEPES, adjusted to pH 7.35 with Tris). Oocytes were studied 24 hr after injection using the two electrode voltage clamp technique as previously described (Donaldson, et al., J. Biol. Chem. 277:8338 (2002)). Oocytes were clamped at a holding potential of −60 mV. The change in amiloride-sensitive whole cell current as an indicator of ENaC activity was determined by subtracting the corresponding current value measured in the presence of 10 μM amiloride from that measured before the application of amiloride. Where appropriate, oocytes were incubated with G22-A39 or ABC for 1 h prior to recording. In some experiments β-ENaC^S518C was used which forms ENaCs that are locked into an open probability near 1.0 by exposure to the sulthydral reactive reagent [2-(Trimethyl-ammonium)ethyl]methanethiosulphonate bromide (MTSET). MTSET was added at a concentration of 1 mM to the oocyte bath as previously described (Snyder, J. Clin. Invest. 105: 45 (2000)).
molecule,measurement,setting,value
"recombinant SPLUNC1 that had been reduced with DTT: recombinant SPLUNC1 pretreated (reduced) with DTT (protein, UniProt Q9NP55 20-256, looked up, DTT-reduced) BPI fold-containing family A …: QFGGLPVPLDQTLPLNVNPALPLSPTGLAGSLTNALSNGLLSGGLLGILENLPLLDILKPGGGTSGGLLGGLLGKVTSVIPGLNNIIDIKVTDPQLLELGLVQSPDGHRLYVTIPLGIKLQVNTPLVGASLLRLAVKLDITAEILAVRDKQERIHLVLGDCTHSPGSLQISLLDGLGPLPIQGLLDSLTGILNKVLPELVQGNVCPLVNEVLRGLDITLVHDIVNMLIHGLQFVIKV",inhibition of transepithelial PD after DTT reduction,[1],abolished SPLUNC1 activity
"mutant SPLUNC1: SPLUNC1 with hinge domain mutated to alanines: K94A, N103A, N104A, K138A, Q140A, N142A, D193A (protein, UniProt Q9NP55 20-256, looked up, variant K94A N103A N104A K138A Q140A N142A D193A) BPI fold-containing family A …: QFGGLPVPLDQTLPLNVNPALPLSPTGLAGSLTNALSNGLLSGGLLGILENLPLLDILKPGGGTSGGLLGGLLGAVTSVIPGLAAIIDIKVTDPQLLELGLVQSPDGHRLYVTIPLGIALAVATPLVGASLLRLAVKLDITAEILAVRDKQERIHLVLGDCTHSPGSLQISLLAGLGPLPIQGLLDSLTGILNKVLPELVQGNVCPLVNEVLRGLDITLVHDIVNMLIHGLQFVIKV",ASL absorption in CF cultures,[2],significantly inhibited ASL absorption
"SPLUNC2: human SPLUNC2 (SEQ ID NO:2), short PLUNC family protein co-expressed in oocytes (protein, listed as Homo sapiens) MLQLWKLVLLCGVLTGTSESLLDNLGNDLSNVVDKLEPVLHEGLETVDNTLKGILEKLKVDLGVLQKSSAWQLAKQKAQEAEKLLNNVISKLLPTNTDIFGLKISNSLILDVKAEPIDDGKGLNLSFPVTANVTVAGPIIGQIINLKASLDLLTAVTIETDPQTHQPVAVLGECASDPTSISLSLLDKHSQIINKFVNSVINTLKSTVSSLLQKEICPLIRIFIHSLDVNVIQQVVDNPQHKTQLQTLI","amiloride-sensitive ENaC current relative to control, co-expression",[3],borderline significance
